Data from patent US10543259.

T1: recombinant human IGFBP-4, 125I-labeled, P22692
T1 chain: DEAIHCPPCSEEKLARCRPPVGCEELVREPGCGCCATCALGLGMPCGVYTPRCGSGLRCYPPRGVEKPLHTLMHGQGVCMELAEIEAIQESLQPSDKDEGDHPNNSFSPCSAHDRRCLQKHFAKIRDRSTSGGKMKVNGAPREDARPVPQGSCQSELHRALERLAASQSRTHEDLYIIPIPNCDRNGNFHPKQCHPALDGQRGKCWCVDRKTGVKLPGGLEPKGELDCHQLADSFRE


What was measured:
[1] = molecular target: recombinant human IGFBP-3, 125I-labeled, P17936
[2] = molecular target: T1, recombinant human IGFBP-4, …
[3] = molecular target: recombinant human IGFBP-5, 125I-labeled, P24593
Chain of recombinant human IGFBP-5, 125I-labeled, P24593 (P24593 21-272): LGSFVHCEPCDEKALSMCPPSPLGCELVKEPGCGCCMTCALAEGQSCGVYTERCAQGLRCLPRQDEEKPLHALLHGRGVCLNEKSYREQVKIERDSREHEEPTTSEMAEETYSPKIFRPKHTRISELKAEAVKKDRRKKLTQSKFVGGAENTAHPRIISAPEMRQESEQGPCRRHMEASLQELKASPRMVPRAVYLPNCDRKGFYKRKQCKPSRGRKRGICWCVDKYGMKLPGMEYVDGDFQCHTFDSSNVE

Chain of recombinant human IGFBP-3, 125I-labeled, P17936 (P17936 28-291): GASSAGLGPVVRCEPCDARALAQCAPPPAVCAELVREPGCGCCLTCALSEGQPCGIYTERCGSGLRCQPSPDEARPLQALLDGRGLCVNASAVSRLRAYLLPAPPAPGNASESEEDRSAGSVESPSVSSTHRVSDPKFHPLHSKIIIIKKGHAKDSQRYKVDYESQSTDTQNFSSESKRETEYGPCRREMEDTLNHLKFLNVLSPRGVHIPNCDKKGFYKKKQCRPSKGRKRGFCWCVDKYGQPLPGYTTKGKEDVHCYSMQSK

Protein | proteolytic cleavage of radiolabeled IGFBP (SDS-PAGE, autoradiography) [1] | proteolytic cleavage of radiolabeled IGFBP (SDS-PAGE, autoradiography) [2] | proteolytic cleavage of radiolabeled IGFBP (SDS-PAGE, autoradiography) [3] | proteolytic cleavage at equimolar concentrations of wild type and mutant (6 h reaction) [1] | proteolytic cleavage at equimolar concentrations of wild type and mutant (6 h reaction) [3]
recombinant wild-type human PAPP-A2 (pregnancy-associated plasma protein-A2) (protein) PPEESNQNGGEGSYREAETFNSQVGLPILYFSGRRERLLLRPEVLAEIPREAFTVEAWVKPEGGQNNPAIIAGVFDNCSHTVSDKGWALGIRSGKDKGKRDARFFFSLCTDRVKKATILISHSRYQPGTWTHVAATYDGRHMALYVDGTQVASSLDQSGPLNSPFMASCRSLLLGGDSSEDGHYFRGHLGTLVFWSTALPQSHFQHSSQHSSGEEEATDLVLTASFEPVNTEWVPFRDEKYPRLEVLQGFEPEPEILSPLQPPLCGQTVCDNVELISQYNGYWPLRGEKVIRYQVVNICDDEGLNPIVSEEQIRLQHEALNEAFSRYNISWQLSVHQVHNSTLRHRVVLVNCEPSKIGNDHCDPECEHPLTGYDGGDCRLQGRCYSWNRRDGLCHVECNNMLNDFDDGDCCDPQVADVRKTCFDPDSPKRAYMSVKELKEALQLNSTHFLNIYFASSVREDLAGAATWPWDKDAVTHLGGIVLSPAYYGMPGHTDTMIHEVGHVLGLYHVFKGVSERESCNDPCKETVPSMETGDLCADTAPTPKSELCREPEPTSDTCGFTRFPGAPFTNYMSYTDDNCTDNFTPNQVARMHCYLDLVYQQWTESRKPTPIPIPPMVIGQTNKSLTIHWLPPISGVVYDRASGSLCGACTEDGTFRQYVHTASSRRVCDSSGYWTPEEAVGPPDVDQPCEPSLQAWSPEVHLYHMNMTVPCPTEGCSLELLFQHPVQADTLTLWVTSFFMESSQVLFDTEILLENKESVHLGPLDTFCDIPLTIKLHVDGKVSGVKVYTFDERIEIDAALLTSQPHSPLCSGCRPVRYQVLRDPPFASGLPVVVTHSHRKFTDVEVTPGQMYQYQVLAEAGGELGEASPPLNHIHGAPYCGDGKVSERLGEECDDGDLVSGDGCSKVCELEEGFNCVGEPSLCYMYEGDGICEPFERKTSIVDCGIYTPKGYLDQWATRAYSSHEDKKKCPVSLVTGEPHSLICTSYHPDLPNHRPLTGWFPCVASENETQDDRSEQPEGSLKKEDEVWLKVCFNRPGEARAIFIFLTTDGLVPGEHQQPTVTLYLTDVRGSNHSLGTYGLSCQHNPLIINVTHHQNVLFHHTTSVLLNFSSPRVGISAVALRTSSRIGLSAPSNCISEDEGQNHQGQSCIHRPCGKQDSCPSLLLDHADVVNCTSIGPGLMKCAITCQRGFALQASSGQYIRPMQKEILLTCSSGHWDQNVSCLPVDCGVPDPSLVNYANFSCSEGTKFLKRCSISCVPPAKLQGLSPWLTCLEDGLWSLPEVYCKLECDAPPIILNANLLLPHCLQDNHDVGTICKYECKPGYYVAESAEGKVRNKLLKIQCLEGGIWEQGSCIPVVCEPPPPVFEGMYECTNGFSLDSQCVLNCNQEREKLPILCTKEGLWTQEFKLCENLQGECPPPPSELNSVEYKCEQGYGIGAVCSPLCVIPPSDPVMLPENITADTLEHWMEPVKVQSIVCTGRRQWHPDPVLVHCIQSCEPFQADGWCDTINNRAYCHYDGGDCCSSTLSSKKVIPFAADCDLDECTCRDPKAEENQ | media from cells transfected with WT PAPP-A2 cDNA completely cleaved these substrates | none of the variants cleaved the PAPP-A substrate, IGFBP-4 | media from cells transfected with WT PAPP-A2 cDNA completely cleaved these substrates |  | 
PAPP-A2(A1033V) (protein) PPEESNQNGGEGSYREAETFNSQVGLPILYFSGRRERLLLRPEVLAEIPREAFTVEAWVKPEGGQNNPAIIAGVFDNCSHTVSDKGWALGIRSGKDKGKRDARFFFSLCTDRVKKATILISHSRYQPGTWTHVAATYDGRHMALYVDGTQVASSLDQSGPLNSPFMASCRSLLLGGDSSEDGHYFRGHLGTLVFWSTALPQSHFQHSSQHSSGEEEATDLVLTASFEPVNTEWVPFRDEKYPRLEVLQGFEPEPEILSPLQPPLCGQTVCDNVELISQYNGYWPLRGEKVIRYQVVNICDDEGLNPIVSEEQIRLQHEALNEAFSRYNISWQLSVHQVHNSTLRHRVVLVNCEPSKIGNDHCDPECEHPLTGYDGGDCRLQGRCYSWNRRDGLCHVECNNMLNDFDDGDCCDPQVADVRKTCFDPDSPKRAYMSVKELKEALQLNSTHFLNIYFASSVREDLAGAATWPWDKDAVTHLGGIVLSPAYYGMPGHTDTMIHEVGHVLGLYHVFKGVSERESCNDPCKETVPSMETGDLCADTAPTPKSELCREPEPTSDTCGFTRFPGAPFTNYMSYTDDNCTDNFTPNQVARMHCYLDLVYQQWTESRKPTPIPIPPMVIGQTNKSLTIHWLPPISGVVYDRASGSLCGACTEDGTFRQYVHTASSRRVCDSSGYWTPEEAVGPPDVDQPCEPSLQAWSPEVHLYHMNMTVPCPTEGCSLELLFQHPVQADTLTLWVTSFFMESSQVLFDTEILLENKESVHLGPLDTFCDIPLTIKLHVDGKVSGVKVYTFDERIEIDVALLTSQPHSPLCSGCRPVRYQVLRDPPFASGLPVVVTHSHRKFTDVEVTPGQMYQYQVLAEAGGELGEASPPLNHIHGAPYCGDGKVSERLGEECDDGDLVSGDGCSKVCELEEGFNCVGEPSLCYMYEGDGICEPFERKTSIVDCGIYTPKGYLDQWATRAYSSHEDKKKCPVSLVTGEPHSLICTSYHPDLPNHRPLTGWFPCVASENETQDDRSEQPEGSLKKEDEVWLKVCFNRPGEARAIFIFLTTDGLVPGEHQQPTVTLYLTDVRGSNHSLGTYGLSCQHNPLIINVTHHQNVLFHHTTSVLLNFSSPRVGISAVALRTSSRIGLSAPSNCISEDEGQNHQGQSCIHRPCGKQDSCPSLLLDHADVVNCTSIGPGLMKCAITCQRGFALQASSGQYIRPMQKEILLTCSSGHWDQNVSCLPVDCGVPDPSLVNYANFSCSEGTKFLKRCSISCVPPAKLQGLSPWLTCLEDGLWSLPEVYCKLECDAPPIILNANLLLPHCLQDNHDVGTICKYECKPGYYVAESAEGKVRNKLLKIQCLEGGIWEQGSCIPVVCEPPPPVFEGMYECTNGFSLDSQCVLNCNQEREKLPILCTKEGLWTQEFKLCENLQGECPPPPSELNSVEYKCEQGYGIGAVCSPLCVIPPSDPVMLPENITADTLEHWMEPVKVQSIVCTGRRQWHPDPVLVHCIQSCEPFQADGWCDTINNRAYCHYDGGDCCSSTLSSKKVIPFAADCDLDECTCRDPKAEENQ | showed no proteolytic activity towards IGFBP-3 or -5 | none of the variants cleaved the PAPP-A substrate, IGFBP-4 | showed no proteolytic activity towards IGFBP-3 or -5 | at equimolar concentrations (FIG. 3C), it still showed no activity | at equimolar concentrations (FIG. 3C), it still showed no activity
